{"source": "patent US20250092100A1", "key": {"GST-Ran": {"target": "GST-Ran (UniProt P62826)", "assay": "GST pull-down, GST-Ran bait, lysate of tsA201 cells with FLAG-MOG1 as prey, anti-FLAG Western blot quantified"}, "HA-tagged Ran": {"target": "HA-tagged Ran (UniProt P62826)", "assay": "co-immunoprecipitation in tsA-201 cells, HA antibody pull-down of HA-Ran, anti-FLAG Western blot quantified"}}, "data": [{"substance": "E50K MOG1 mutant tagged with FLAG (from UniProt Q9HD47 1-186)", "values": [{"measurement": "reduction of binding to Ran compared with the wild-type MOG1", "setting": "GST-Ran", "value": 95, "unit": "%"}, {"measurement": "reduction of binding to Ran compared with the wild-type MOG1", "setting": "HA-tagged Ran", "value": 92, "unit": "%"}]}]}
